Experimental findings from article PMC10827754, “The crystal structure of SUN1-KASH6 reveals an asymmetric LINC complex architecture compatible with nuclear membrane insertion” (Communications Biology, 2024) are described below.

The target in series [1] is SUN domain of human SUN1 (amino-acids 616-812) (human). In words: SEC-MALS; co-purified complex treated overnight in 20 mM sodium acetate pH 5.0, 150 mM KCl, 10% glycerol, 2 mM DTT, then analysed in 20 mM Hepes pH 7.5, 150 mM KCl, 2 mM DTT.
For series [2] the target is unchanged. In words: crystal structure; co-expressed and co-purified SUN1-KASH6 at 12 mg/ml; sitting drops, 20 °C; MES pH 6.0 (1.7 Å), Bis Tris pH 5.5 (2.3 Å), sodium citrate pH 5.5 (2.0 Å).
The target is the same in series [3]. The experiment in a line: SEC-MALS; untreated (native) co-purified complex; 8-13 mg/ml loaded on Superdex 200 Increase 10/300 GL in 20 mM Hepes pH 7.5, 150 mM KCl, 2 mM DTT.
For series [4] the target is unchanged. The series is described as above. This is another data set of the same source.
Series [5] concerns the molecule itself. The experiment in a line: crystal structure; co-expressed and co-purified SUN1-KASH6 at 12 mg/ml; sitting drops, 20 °C; MES pH 6.0 (1.7 Å), Bis Tris pH 5.5 (2.3 Å), sodium citrate pH 5.5 (2.0 Å).
Series [6] deals with SUN domain of human SUN1 (amino-acids 616-812) (human). Described as above. The source holds these as a separate data set.

Where “and” joins values, the source holds several entries; their conditions need not be identical. Identical values can stand only once.

“SUN domain of human SUN1 (amino-acids 616-812) (domain or fragment)”: the stoichiometry N is 9 and 6 in series [1]; 9 in series [2]; 6 in series [3].

B1: KASH6 core H539Q (human JAW1/LRMP amino-acids 531-555) (peptide)
chain: EDSWTSLEQILWPFTRLRHNGPPPV
On to B1, for which, in series [1], the stoichiometry N (KASH6 per SUN1) worked out at 1.

B2: KASH6 core (human JAW1/LRMP amino-acids 531-555) (peptide)
chain: EDSWTSLEHILWPFTRLRHNGPPPV
In the case of B2, in series [1], the percent (by mass) as 6:6 complex was 15 % (by mass), the percent (by mass) as 9:6 complex was 85 % (by mass) and the stoichiometry N (KASH6 per SUN1) was found to be 0.67. In addition, in series [4], the stoichiometry N (KASH6 per SUN1) is 1.

B3: KASH6 core H549Y (human JAW1/LRMP amino-acids 531-555) (peptide)
chain: EDSWTSLEHILWPFTRLRYNGPPPV
B3: in series [1], the percent (by mass) as 6:6 complex is 55 % (by mass); the percent (by mass) as 9:6 complex is 45 % (by mass); the stoichiometry N (KASH6 per SUN1) was 0.67 and 1.

B4: KASH6 core H539K (human JAW1/LRMP amino-acids 531-555) (peptide)
chain: EDSWTSLEKILWPFTRLRHNGPPPV
On to B4, for which, in series [4], the percent (by mass) as 6:6 complex is 40 % (by mass); the percent (by mass) as 9:6 complex is 60 % (by mass); the stoichiometry N (KASH6 per SUN1) is 1 and 0.67.

B5: KASH6 core W534A (human JAW1/LRMP amino-acids 531-555) (peptide)
chain: EDSATSLEHILWPFTRLRHNGPPPV
Take B5: in series [1], the stoichiometry N (KASH6 per SUN1) was 1.

B6: KASH domain of human JAW1/LRMP (KASH6, amino-acids 515-555) (peptide, UniProt Q12912 515-555, looked up)
chain: TGQLFQKSVDAAPTQQEDSWTSLEHILWPFTRLRHNGPPPV
notes: JAW1/LRMP (lymphoid restricted membrane protein), human, KASH domain, amino-acids 515-555; KASH6α, KASH6β and KASH6γ are the same peptide in three conformations or sites of the crystal structure; also called KASH6α; KASH6β; not shown: His6, N-terminal, cleaved; MBP, N-terminal, cleaved
As to B6, the stoichiometry N (KASH6 per SUN1) is 0.67 and 1 in series [1]; 1 in series [4]; 0.67 in series [6]. Moreover, the binding result in series [5] is listed as “binds”.
